# Source: IntAct's records for PubMed 20543138
# B1: General transcription factor 3C polypeptide 5 (Homo sapiens), Q9Y5Q8 (parent)
# chain: MAAEAADLGLGAAVPVELRRERRMVCVEYPGVVRDVAKMLPTLGGEEGVSRIYADPTKRLELYFRPKDPYCHPVCANRFSTSSLLLRIRKRTRRQKGVLGTEAHSEVTFDMEILGIISTIYKFQGMSDFQYLAVHTEAGGKHTSMYDKVLMLRPEKEAFFHQELPLYIPPPIFSRLDAPVDYFYRPETQHREGYNNPPISGENLIGLSRARRPHNAIFVNFEDEEVPKQPLEAAAQTWRRVCTNPVDRKVEEELRKLFDIRPIWSRNAVKANISVHPDKLKVLLPFIAYYMITGPWRSLWIRFGYDPRKNPDAKIYQVLDFRIRCGMKHGYAPSDLPVKAKRSTYNYSLPITVKKTSSQLVTMHDLKQGLGPSGTSGARKPASSKYKLKDSVYIFREGALPPYRQMFYQLCDLNVEELQKIIHRNDGAENSCTERDGWCLPKTSDELRDTMSLMIRQTIRSKRPALFSSSAKADGGKEQLTYESGEDEEDEEEEEEEEEDFKPSDGSENEMETEILDYV
# Variants of: B1
# Settings: with mtor_human MTOR
row,effect of a mutation on the interaction,Variant
1,disrupting interaction,F109I
